# In the supplement of paper PMC9112550, “Optimization of the antimicrobial peptide Bac7 by deep mutational scanning” (BMC Biology, 2022):
# Tested on: Escherichia coli TOP10
# Test: shrunken log2 fold change of peptide-encoding DNA abundance (4.5 h post-induction vs induction); higher = less antimicrobial activity (less host growth inhibition)
# Settings: time post-induction: 4.5 h; library: site-saturation at positions 5, 18, 19, 20
# 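Also: peptides expressed intracellularly from a pBAD plasmid library in pooled LB shake-flask culture, induced with 0.3% L-arabinose, DNA abundance read by NGS, three biological replicates, DESeq2 with apeglm shrinkage.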
row,Sequence,shrunken log2 fold change
1,RRIRPRPPRLPRPRPRPICMPRP,-0.343
2,RRIRSRPPRLPRPRPRPTLVPRP,0.366
3,RRIRGRPPRLPRPRPRPRYAPRP,0.399
4,RRIRHRPPRLPRPRPRPGSWPRP,0.112
5,RRIRARPPRLPRPRPRPVKTPRP,0.232
6,RRIRYRPPRLPRPRPRPMLNPRP,-0.892
7,RRIRFRPPRLPRPRPRPNIWPRP,-0.224
8,RRIRKRPPRLPRPRPRPFIQPRP,0.0388
9,RRIRFRPPRLPRPRPRPWILPRP,-0.144
10,RRIRTRPPRLPRPRPRPNTQPRP,-0.0477
11,RRIRYRPPRLPRPRPRPTNPPRP,-0.165
12,RRIRARPPRLPRPRPRPTYMPRP,-0.36
13,RRIRLRPPRLPRPRPRPYRPPRP,-0.221
14,RRIRQRPPRLPRPRPRPMHTPRP,-0.026
15,RRIRERPPRLPRPRPRPTAQPRP,0.416
16,RRIRIRPPRLPRPRPRPIMEPRP,-0.216
17,RRIRLRPPRLPRPRPRPWTFPRP,-0.0155
18,RRIRWRPPRLPRPRPRPSQKPRP,-0.0621
19,RRIRHRPPRLPRPRPRPGDPPRP,0.219
20,RRIRPRPPRLPRPRPRPTPIPRP,0.336
21,RRIRNRPPRLPRPRPRPWITPRP,-0.0261
22,RRIRERPPRLPRPRPRPFRKPRP,-0.534
23,RRIRYRPPRLPRPRPRPEFTPRP,-0.0369
24,RRIRARPPRLPRPRPRPCRSPRP,-0.0342
25,RRIRGRPPRLPRPRPRPCEVPRP,0.0371

row,Sequence,shrunken log2 fold change
1,RRIRYRPPRLPRPRPRPQHTPRP,-0.671
2,RRIRMRPPRLPRPRPRPMYFPRP,0.178
3,RRIRERPPRLPRPRPRPIQEPRP,-0.0167
4,RRIRFRPPRLPRPRPRPTWKPRP,0.32
5,RRIRNRPPRLPRPRPRPVYMPRP,-0.0311
6,RRIRRRPPRLPRPRPRPGTFPRP,-0.578
7,RRIRKRPPRLPRPRPRPSHSPRP,-0.47
8,RRIRERPPRLPRPRPRPDQFPRP,-0.154
9,RRIRMRPPRLPRPRPRPSCCPRP,0.291
10,RRIRERPPRLPRPRPRPFPVPRP,-0.214
11,RRIRARPPRLPRPRPRPCWTPRP,0.01
12,RRIRNRPPRLPRPRPRPTAEPRP,-0.0644
13,RRIRIRPPRLPRPRPRPIWGPRP,-0.0934
14,RRIRKRPPRLPRPRPRPTGYPRP,0.214
15,RRIRYRPPRLPRPRPRPRARPRP,2.17
16,RRIRSRPPRLPRPRPRPRCMPRP,-0.0959
17,RRIRNRPPRLPRPRPRPWCQPRP,-0.0618
18,RRIRVRPPRLPRPRPRPYSMPRP,-0.692
19,RRIRYRPPRLPRPRPRPTACPRP,-0.13
20,RRIRERPPRLPRPRPRPAPAPRP,0.305
21,RRIRQRPPRLPRPRPRPQFPPRP,-0.202
22,RRIRARPPRLPRPRPRPIWRPRP,0.426
23,RRIRARPPRLPRPRPRPVPSPRP,0.181
24,RRIRWRPPRLPRPRPRPGLWPRP,1.16
25,RRIRQRPPRLPRPRPRPCCNPRP,-0.0838

row,Sequence,shrunken log2 fold change
1,RRIRIRPPRLPRPRPRPKVHPRP,-0.094
2,RRIRARPPRLPRPRPRPMHCPRP,0.0899
3,RRIRVRPPRLPRPRPRPAPGPRP,0.472
4,RRIRFRPPRLPRPRPRPKVCPRP,0.0321
5,RRIRPRPPRLPRPRPRPAMQPRP,0.11
6,RRIRNRPPRLPRPRPRPIPNPRP,-0.428
7,RRIRFRPPRLPRPRPRPTSIPRP,-0.296
8,RRIRCRPPRLPRPRPRPGHGPRP,-0.0435
9,RRIRFRPPRLPRPRPRPGQCPRP,-0.114
10,RRIRYRPPRLPRPRPRPTPLPRP,0.0136
11,RRIRCRPPRLPRPRPRPKWKPRP,0.329
12,RRIRDRPPRLPRPRPRPSHDPRP,-0.339
13,RRIRVRPPRLPRPRPRPNHRPRP,-0.199
14,RRIRGRPPRLPRPRPRPVRLPRP,0.525
15,RRIRGRPPRLPRPRPRPLNPPRP,0.215
16,RRIRRRPPRLPRPRPRPLNVPRP,-0.0701
17,RRIRNRPPRLPRPRPRPITRPRP,-0.0765
18,RRIRNRPPRLPRPRPRPPAWPRP,0.369
19,RRIRMRPPRLPRPRPRPFWPPRP,1.3
20,RRIRQRPPRLPRPRPRPLCPPRP,-0.334
21,RRIRNRPPRLPRPRPRPFVTPRP,-0.274
22,RRIRGRPPRLPRPRPRPIAWPRP,1.05
23,RRIRTRPPRLPRPRPRPLHVPRP,-0.175
24,RRIRNRPPRLPRPRPRPPWIPRP,-0.0807
25,RRIRRRPPRLPRPRPRPKLEPRP,0.297

row,Sequence,shrunken log2 fold change
1,RRIRWRPPRLPRPRPRPFPMPRP,-0.111
2,RRIRDRPPRLPRPRPRPFTWPRP,-0.12
3,RRIRFRPPRLPRPRPRPEQLPRP,0.178
4,RRIRARPPRLPRPRPRPNKVPRP,-0.108
5,RRIRDRPPRLPRPRPRPQLTPRP,0.0489
6,RRIRCRPPRLPRPRPRPWQPPRP,0.0636
7,RRIRGRPPRLPRPRPRPQYNPRP,-0.0557
8,RRIRKRPPRLPRPRPRPTQIPRP,0.412
9,RRIRNRPPRLPRPRPRPMKYPRP,-0.164
10,RRIRKRPPRLPRPRPRPFVGPRP,-0.0257
11,RRIRARPPRLPRPRPRPIKNPRP,0.00937
12,RRIRLRPPRLPRPRPRPDMMPRP,-0.295
13,RRIRARPPRLPRPRPRPDMNPRP,0.31
14,RRIRKRPPRLPRPRPRPHNGPRP,0.169
15,RRIRGRPPRLPRPRPRPQQHPRP,0.232
16,RRIRRRPPRLPRPRPRPMGDPRP,-0.251
17,RRIRGRPPRLPRPRPRPAQAPRP,0.505
18,RRIRKRPPRLPRPRPRPQMEPRP,-0.0377
19,RRIRERPPRLPRPRPRPLGDPRP,-0.0627
20,RRIRERPPRLPRPRPRPVMQPRP,0.095
21,RRIRARPPRLPRPRPRPPAKPRP,1.12
22,RRIRFRPPRLPRPRPRPNEKPRP,0.0854
23,RRIRQRPPRLPRPRPRPSMKPRP,-0.166
24,RRIRQRPPRLPRPRPRPWGLPRP,0.211
25,RRIRHRPPRLPRPRPRPPNNPRP,-0.58

row,Sequence,shrunken log2 fold change
1,RRIRARPPRLPRPRPRPGQCPRP,0.203
2,RRIRLRPPRLPRPRPRPNICPRP,-0.132
3,RRIRWRPPRLPRPRPRPSEVPRP,-0.0251
4,RRIRIRPPRLPRPRPRPMPMPRP,-0.0159
5,RRIRLRPPRLPRPRPRPPWDPRP,0.344
6,RRIRVRPPRLPRPRPRPIIHPRP,-0.809
7,RRIRYRPPRLPRPRPRPTKNPRP,-0.495
8,RRIRSRPPRLPRPRPRPCMPPRP,-0.375
9,RRIRWRPPRLPRPRPRPDMHPRP,0.199
10,RRIRWRPPRLPRPRPRPLRYPRP,-0.0913
11,RRIRHRPPRLPRPRPRPESPPRP,0.0722
12,RRIRYRPPRLPRPRPRPRCNPRP,-0.552
13,RRIRERPPRLPRPRPRPVSAPRP,0.148
14,RRIRDRPPRLPRPRPRPVDFPRP,0.0775
15,RRIRHRPPRLPRPRPRPWIVPRP,-0.404
16,RRIRFRPPRLPRPRPRPIERPRP,0.116
17,RRIRERPPRLPRPRPRPGPRPRP,0.537
18,RRIRPRPPRLPRPRPRPNFTPRP,0.0917
19,RRIRKRPPRLPRPRPRPRIDPRP,-0.154
20,RRIRPRPPRLPRPRPRPVFIPRP,-0.235
21,RRIRKRPPRLPRPRPRPNPQPRP,0.463
22,RRIRKRPPRLPRPRPRPKSIPRP,-0.0265
23,RRIRKRPPRLPRPRPRPIDNPRP,0.0107
24,RRIRTRPPRLPRPRPRPRAAPRP,0.385
25,RRIRERPPRLPRPRPRPCPRPRP,-0.021

row,Sequence,shrunken log2 fold change
1,RRIRMRPPRLPRPRPRPYTFPRP,-0.0434
2,RRIRYRPPRLPRPRPRPCFVPRP,-1.09
3,RRIRARPPRLPRPRPRPAQSPRP,0.538
4,RRIRNRPPRLPRPRPRPCGRPRP,-0.0266
5,RRIRRRPPRLPRPRPRPCQWPRP,0.107
6,RRIRIRPPRLPRPRPRPNIWPRP,0.127
7,RRIRNRPPRLPRPRPRPMASPRP,-0.0269
8,RRIRSRPPRLPRPRPRPTWTPRP,0.764
9,RRIRLRPPRLPRPRPRPSSGPRP,0.131
10,RRIRLRPPRLPRPRPRPHQNPRP,-0.149
11,RRIRHRPPRLPRPRPRPARHPRP,0.293
12,RRIRIRPPRLPRPRPRPRCAPRP,0.204
13,RRIRDRPPRLPRPRPRPESCPRP,0.629
14,RRIRNRPPRLPRPRPRPGYFPRP,-0.541
15,RRIRVRPPRLPRPRPRPWEHPRP,0.0927
16,RRIRPRPPRLPRPRPRPDVVPRP,-0.00973
17,RRIRYRPPRLPRPRPRPTWSPRP,-0.58
18,RRIRWRPPRLPRPRPRPFRGPRP,0.0269
19,RRIRQRPPRLPRPRPRPMCYPRP,-0.01
20,RRIRWRPPRLPRPRPRPTRPPRP,0.855
21,RRIRMRPPRLPRPRPRPGCYPRP,0.135
22,RRIRTRPPRLPRPRPRPLNYPRP,-0.415
23,RRIRKRPPRLPRPRPRPYKNPRP,-0.176
24,RRIRSRPPRLPRPRPRPWEEPRP,0.0166
25,RRIRWRPPRLPRPRPRPRHWPRP,0.0523
